Reference: publication PMC9849103 (Nature Communications, 2023)
Positions count from the first letter of the chain named.

B1: B1032 (antibody, V domains shown)
VH: EVQLVESGGGLVQPGRSLRLSCEASGFTFEDFAMHWVRQAPGKGLEWVSGVSWNSGTIGYGDSVKGRFIIIRDNAKNSVYLQMNSLRPEDTAFYYCVKDMATYYKDISGTYGMDVWGQGTTVTVSS
VL: SYELTQTPSVSVAPGQTARITCVGNNIGSESVHWYQQKSGRAPVLVVYDDSDRPSGIPERFSGSTSGTTATLIINRVEAGDEAGYYCQVWDASSDHVVFGGGTKLTVL
notes: source: 293-6E cells, transfected, purified (Protein G Sepharose)
B2: B1030 (antibody, V domains shown)
VH: QVQLVQSGAEVKKPGASVRVSCKASGYTFTSYYMHWVRQAPGQGLEWMGIINPSDGGASYAQKFQGRVTMTSDTSTSTVYMELSSLRSEDTAVYYCARALRHHSSGWYSALDFQHWGQGTLVTVSS
VL: not shown
notes: as for B1
B3: B2064 (antibody, V domains shown)
VH: QVQLVQSGAEVKKPGSSVNVSCKASGGTLNIYTFSWVRQAPGQGLEWVGTIVPLVGKANYPHKFQGRVTITADKSTSTVNMELSSLRSEDTAVYYCASEVLDNLRDGYNFWGQGTLVTVSS
VL: DIQMTQSPSSLSASVGDRVTITCRASQSVSSYLNWYQQKPGKAPKLLIYAVSSLQSGVPSRFSGSGSGTDFTLTISSLQPEDFATYYCQQTYNTLTFGGGTKVEIK
notes: as for B1
B4: B1037 (antibody, V domains shown)
VH: QVQLVQSGAEVKKPGSSVKVSCKASGDTFISYAITWVRQAPGQGLEWMGRIIPILGVADYAPKFQGRVTITADKSTSTAYMELSSLRSEDTAVFYCASWRGREYNGYDWTGPTRGFDSWGQGTLVTVSS
VL: not shown
notes: as for B1
B5: B2058 (antibody, V domains shown)
VH: EVQLVESGGGLIQPGGSLRLSCAASGLTVSSNYMSWVRQAPGKGLEWVSVIYPGGSTFYADSVKGRFTISRDNSKNTLYLQLNSLRADDTAVYFCARGDGYTDYYYGLDVWGQGTTVTVSS
VL: DIQLTQSPSSLSASVGDRVTITCRASQSISSYLNWYQQKPGKAPKLLIYAASSLQSGVPSRFSGSGSGTDFTLTISSLQPEDFATYYCQQRGFGQGTKVEIK
notes: as for B1
B6: C1034 (antibody, V domains shown)
VH: QLQLQESGPGLVKPSETLSLTCTVSGGSVSSNNHYWGWIRQPPGKGLEWIGSISSSGSTHHNPSLRSRVTISVDTSKNHFSLKLNSVTATDTAVYYCARVDSSGWYTGDVFDVWGQGTMVTVSS
VL: DIQMTQSPSSLSASVGDRVTITCRASQTINNYLNWYQQKPGKPPKLLIYAAFSLHSGVPSRFSGSRSGTDFTLTISSLQPEDFATYYCQHSYSTMCSFGQGTKLEIK
notes: as for B1
B7: B1002 (antibody, V domains shown)
VH: QVQLVQSGAEVKKPGSSVKVTCRASGGTFSNLAISWVRQAPGQGLEWMGSIIPMFTISNYAQKLKGRVTITADKSTSTAYMELSSLRSGDTAVYFCASLGSNITVVRGAPITDHHFHYWGQGTLVTVSS
VL: QSALTQPASVSGSPGQSVTISCTGTSSDVGTYNLVSWYQQHPGKAPKLMIYEVSKRPSGVSNRFSGSKSGNTASLTISGLQAEDEADYYCCSYAASSTTHWVFGGGTKLAV
notes: as for B1
B8: C2606 (antibody, V domains shown)
VH: QVQLVQSGAEVKKPGSSVKVSCKASGDTFRSYAISWVRQAPGQGLEWMGRIIPMLGITTYEQKYQGRLKIIADKSTSTAYMELSSLRSEDTAVYFCARDGVGATEPYYYDYWGQGTLVTVSS
VL: QSVLTQPASVSGSPGQSIIISCTGTSSDVGKYDFVSWYQQHPGKAPKLMIYDVSKRPSGVSDRFSGSKSGNTASLTISGLQAEDEADYHCASYTSDSSYLVFGGGTKLTVL
notes: as for B1
B9: C3102 (antibody, V domains shown)
VH: QVQLVQSGAEVKKPGSSVKVSCKASGGTFRRYAISWVRQAPGQGLEWMGGIIPIAGAADYAQKFQARVTITADESTSTAYLELSSLRSEDTAVYYCAREISYCSGAPCYAGYYDYGMDVWGQGTTVTVSS
VL: QSVLTQPPSASGTPGQRVTISCSGNSSNIGSNSVNWYQQLPGTAPKLLIKSTNQRPSGVPDRFSGSKSGTSASLAISGLQSEDEADYYCAAWEDVLNAVVFGGGTMLTV
notes: as for B1
B10: B1011 (antibody, V domains shown)
VH: QVQLVQSGAEVKKPGASVKVSCKASGYTFISYYTHWVRQAPGQGLEWMGIINPSDGYTSYAQKFQGRVTMTRDTSASTVYMELSSLRSEDTAVYYCARDSSIAARVVAWGQGTLVTVSS
VL: DIQMTQSPSSLSASVGDRVTITCQASQDIYNYLNWYQQKPGKAPKLLIFDAINLETGVPSRFSGSGSGTDFTFTISSLQPEDIATYYCQQHDNLPYSFGQGTKLEIK
notes: as for B1
B11: B1012 (antibody, V domains shown)
VH: B10 VH
VL: B10 VL with Y30G, I52S, T56A, G64A, T74A, T85A, N93D, K103T
notes: as for B1
B12: B1034 (antibody, V domains shown)
VH: B10 VH with A9S, Y27N, S31T, I50V, N52K, S59N, R87T, E89D, A108D
VL: B10 VL with F73L
notes: as for B1
B13: B1026 (antibody, V domains shown)
VH: QMQLVQSGPEIKKPGTSVKVSCKASGFTFSNSAVQWVRQARGQRLEWIGWIVVGSGDPNYAQKFQERVTLTRDMSTSTAYMELSSLRSEDTAVYYCATNHCSRTICSDGFDIWGQGTVVTVSS
VL: EIVLTQSPVSLSLSPGERATLSCRASQTVRSSYFVWYQQKLGQAPRLLIYSASSRAAGIPDRFSGSGSGTDFTLTISRLEPEDFAVYYCQQYGSSPWTFGQGTKVEIK
notes: as for B1
B14: B2006 (antibody, V domains shown)
VH: EVQLVQSGAEVKKPGESLKISCKGFGSSFTNYWIGWVRQMPGKGLEWMGSVYAGDSDTRYSPSFQGQVTVSADKSITTAYLQWTSLKASDTAMYFCARASQGNYFDFWGQGTLVTVSS
VL: DIQMTQSPSTLSASVGDRVTITCRASQSISRWLAWYQQKPGKAPKLLIYDASILESGVPSRFSGSGSGTDFTLTISSLQPDDYATYYCQQFYSNLYTFGQGTKLEIK
notes: as for B1
B15: C3095 (antibody, V domains shown)
VH: EVQLVETGGGLIQPGGSLRLSCAASEFIVSANYMHWVRQAPGQGLEWVSVIYAGGSTFYADSVKGRFTISRDNSKNSLYLQMNSLRAEDTAVYYCARGLGDYFDFWGQGTLVTVSS
VL: DIQMTQSPSTLSASVGDRVTITCRASQSFSDWLAWYQQKPGSAPKLLIYRASSLESGVPSRFSGSGSGTEFTLTISSLQPDDFATYYCQQYNTYPLTFGGGTKVEIK
notes: as for B1
B16: C3055 (antibody, V domains shown)
VH: QVQLVQSGAEVKKPGSSVNVSCRASGGTFSSKTISWVRQAPGQGLEWMGKIFPILGVANYAQKFQGRVTITADRSTNTAYMELNSLRSEDTAIYYCATEEGYSSSRSLPAEYFRQWGQGTLVTVSS
VL: QSVLTQPPSVSGAPGQRVTISCTGSNSNIGAGYDVHWYQQLPGTAPKLLIYANTNRPSGVPDRFSGSKSGTSASLAITGLQAEDEADYYCQSYDSGLSGSLFGGGTKLTVL
notes: as for B1
B17: C2488 (antibody, V domains shown)
VH: QVQLVESGGGVVQPGRSLRLSCAASGFTFSTHGMHWVRQAPGKGLEWMAVIYFDGSNKYYADSVKGRFAISRDNSKNTLFLQMNSLRADDTAVYHCATNSAGYGDSYETFDIWGQGTMVSVSS
VL: EIVMTQSPATLSVSPGERATLSCRASHSVGTNLAWYQQKPGQAPRLLIYGAFTRAAGISARFSGSGSGTEFTLTISSLQSEDLAVYYCQQYENWPPYTFGQGTKLEIK
notes: as for B1
B18: C2655 (antibody, V domains shown)
VH: QVQLVQSGAEVKKPGSSVKVSCKASGGTFNSYAISWVRQAPGQGLEWMGGIIHVLGTANYAQRFQGRVTITADESTSTVYMELSSLRSEDTAVYYCARVGAPLGRADSGYDFYYYGMDVWGQGTTVTVSS
VL: not shown
notes: as for B1
B19: B2014 (antibody, V domains shown)
VH: QVQLVQSGAELKRPGASVKVSCKASGYTFSDYHMNWVRQAPGQGLEWMGIINPSGGGASYPQKFQGRVTMTRDTSTSTVFMQLNSLTYEDTAVYYCARGTPPSRGWYGGFDNWGQGTLVTVSS
VL: QSVLTQPPSVSGAPGQRITISCTGSTSNIGAGYDVQWYQQLPGTAPKLLIFDNNNRPSGVPDRFSGSKSGTSASLAITGLQAEDEADYYCQSFDSTLSGSTFVFGPGTKVTVL
notes: as for B1
B20: C3108 (antibody, V domains shown)
VH: QVQLQESGPGLVKPSQTLSLTCTVSGGSISSGGYYWNWIRQSPVKGLEWIGYIYYSGGTYYNPSLRSRLTISLDTSNNQFSLRLNSVTAADTAIYYCARDQGAITFGTDAFEIWGQGTMVTVSS
VL: DIQMTQSPSSLSASVGDRVTITCQASQDISKYLNWYQQKPGKAPKLLIYGASTLKAGVPSRFSGSGSGTDFTFTISSLQPEDIATYYCQQYDSLPPTFGGGTKVEIK
notes: as for B1

target: WT RBD (SARS-CoV-2 Wuhan-Hu-1 spike receptor binding domain) (SARS-CoV-2 (Wuhan-Hu-1), UniProt P0DTC2); assay: BLI; conditions: both partners purified

| Binder | Kd [nM] |
| --- | --- |
| B1 | 0.52 |
| B2 | 5.06 |
| B3 | 0.866 |
| B4 | 3.21 |
| B5 | 1.02 |
| B6 | 1.98 |
| B7 | 0.732 |
| B8 | 0.743 |
| B9 | 0.639 |
| B10 | 0.893 |
| B11 | 0.572 |
| B12 | 0.734 |
| B13 | 12 |
| B14 | 0.582 |
| B15 | 0.00158 |
| B16 | 0.592 |
| B17 | 8.95 |
| B18 | 1.34 |
| B19 | 1.24 |
| B20 | 0.96 |
